In publication PMC10850481, “Structural basis for the oligomerization-facilitated NLRP3 activation” (Nature Communications, 2024):

B1: PYD-deleted human NLRP3 (NLRP3_(ΔPYD)), from the construct FLAG.6His.MBP.TEV.CfaC.NLRP3_130.K131F.M132N-1036 (domain or fragment, UniProt Q96P20 130-1036, looked up)
chain: CFNKKDYRKKYRKYVRSRFQCIEDRNARLGESVSLNKRYTRLRLIKEHRSQQEREQELLAIGKTKTCESPVSPIKMELLFDPDDEHSEPVHTVVFQGAAGIGKTILARKMMLDWASGTLYQDRFDYLFYIHCREVSLVTQRSLGDLIMSCCPDPNPPIHKIVRKPSRILFLMDGFDELQGAFDEHIGPLCTDWQKAERGDILLSSLIRKKLLPEASLLITTRPVALEKLQHLLDHPRHVEILGFSEAKRKEYFFKYFSDEAQARAAFSLIQENEVLFTMCFIPLVCWIVCTGLKQQMESGKSLAQTSKTTTAVYVFFLSSLLQPRGGSQEHGLCAHLWGLCSLAADGIWNQKILFEESDLRNHGLQKADVSAFLRMNLFQKEVDCEKFYSFIHMTFQEFFAAMYYLLEEEKEGRTNVPGSRLKLPSRDVTVLLENYGKFEKGYLIFVVRFLFGLVNQERTSYLEKKLSCKISQQIRLELLKWIEVKAKAKKLQIQPSQLELFYCLYEMQEEDFVQRAMDYFPKIEINLSTRMDHMVSSFCIENCHRVESLSLGFLHNMPKEEEEEEKEGRHLDMVQCVLPSSSHAACSHGLVNSHLTSSFCRGLFSVLSTSQSLTELDLSDNSLGDPGMRVLCETLQHPGCNIRRLWLGRCGLSHECCFDISLVLSSNQKLVELDLSDNALGDFGIRLLCVGLKHLLCNLKKLWLVSCCLTSACCQDLASVLSTSHSLTRLYVGENALGDSGVAILCEKAKNPQCNLQKLGLVNSGLTSVCCSALSSVLSTNQNLTHLYLRGNTLGDKGIKLLCEGLLHPDCKLQVLELDNCNLTSHCCWDLSTLLTSSQSLRKLSLGNNDLGDLGVMMFCEVLKQQSCLLQNLGLSEMYFNYETKSALETLQEEKPELTVVFEPSW
notes: human NLRP3 (UniProt Q96P20), residues 130-1036 (NACHT and LRR, PYD deleted) with K131F and M132N next to the CfaC intein fragment; The same protomer forms an octamer (with ATP, no MCC950), a hexamer (with ATP and MCC950) and a back-to-back dimer (with NEK7, ATP and MCC950); The second construct, MBP.TEV.NLRP3_130_1036, was used only for the ATPase and nanoDSF assays; also called …

How the values were obtained:
[1] = target: the molecule itself; experiment: cryo-EM structure; NLRP3_(ΔPYD) with ATP and MCC950; D3 symmetry imposed; closed hexamer, seen in the dataset without NEK7 and as one of two populations in the dataset with NEK7
[2] = target: the molecule itself; experiment: cryo-EM structure; NLRP3_(ΔPYD) with ATP, MCC950 (10 fold molar excess) and NEK7_(K63M/K64M) (2 fold molar excess); Superdex 200 peak fractions; C2 symmetry imposed; closed NEK7/NLRP3 dimer
[3] = target: the molecule itself; experiment: cryo-EM structure; NLRP3_(ΔPYD) with ATP, without MCC950; applied to grids immediately after SEC (Superose 6, 25 mM HEPES pH 7.4, 0.4 M NaCl, 0.2% CHAPS, 0.2 mM TCEP); D2 symmetry imposed; open octamer
[4] = target: B1; experiment: cryo-EM structure; NLRP3_(ΔPYD) with ATP, MCC950 (10 fold molar excess) and NEK7_(K63M/K64M) (2 fold molar excess); Superdex 200 peak fractions; C2 symmetry imposed; closed NEK7/NLRP3 dimer; conditions: both partners purified

Row | Binder | stoichiometry N [1] | stoichiometry N [2] | stoichiometry N [3] | binding result [4]
1 | B1 | 6 | 2 | 8 | –
2 | human NEK7 with kinase mutations K63M/K64M (NEK7_(K63M/K64M)) (enzyme, human NEK7 (UniProt Q8TDX7) with kinase mutations K63M/K64M; also called NIMA-related kinase 7; 6His.SUMO.NEK7_(K63M/K64M); source: E. coli BL21(DE3), purified (HisPur Ni resin, Ulp1 cleavage, HisTrap flow-through, Superdex 200); not shown: His6, N-terminal, cleaved; SUMO, N-terminal, cleaved) not shown | – | – | – | binds
